Reference: patent US20240254204A1

Experiments:
[1] = biological target: SARS-CoV-2 RBD (SARS-CoV-2); experiment: sVNT, cPass kit with SARS-CoV-2 RBD-HRP; HEK293 supernatant
[2] = biological target: SARS-CoV-1 RBD (SARS-CoV); experiment: ELISA, 100 ng coated RBD, neat supernatant, anti-human IgG-HRP
[3] = biological target: SARS-CoV-2 RBD (SARS-CoV-2); experiment: as above
[4] = biological target: SARS-CoV-1 RBD (SARS-CoV); experiment: sVNT, cPass kit format with SARS-CoV-1 RBD-HRP; HEK293 supernatant

B1: Antibody 1 (SS6V1-B5) (antibody, V domains shown)
VH: EVQLVESGGGLVQPGGSLRLSCAASGFILRNYEMQWVRQAPGKGLEWVSVIGNTGGTFYAGSVKGRFTISRENAKNSLYLQMNSLRAEDTALYYCARVTYTSSPLPFWFLDLWGRGTLVTVSS
VL: DIQMTQSPSSLSASVGDRVTITCRASQSIGNYLNWYQQKSGKAPKILIYAASSLQSGVPSRFSGSGSGTDFTLTISSLQPEDFATYYCQQTYRTPPEDSFGQGTKVEIK
Binder B1 has a sVNT SARS-CoV-2 (% I) [1] of 46.3%, a Binding SARS-CoV-1 [2] of 1.35 and a Binding SARS-CoV-2 [3] of 1.73. It also gave a sVNT SARS-CoV-1 (% I) [4] of 52.1%.

B2: Antibody 5 (SS6V5-C3) (antibody, V domains shown)
VH: EVQLVQSGAEVRKPGESLKISCKTSGYTFTHYWIGWVRQLPGKGLEWMGIIYPDDSDTKYSPSFQGQITISADKSISTAYLQWNSLKASDTAMYFCATADIVVGSNFFDHWGQGTLVTVSS
VL: DIQMTQSPSTLSASVGDRVTITCRASQSISTWLAWYQQKPGKPPKVLIYKASILESGVSSRFSGSGSGTEFTLTISSLQPDDFATYYCQHYNSYIKTFGQGTKVEIK
B2 showed a sVNT SARS-CoV-2 (% I) [1] of 32.3%, a Binding SARS-CoV-1 [2] of 1.16 and a Binding SARS-CoV-2 [3] of 1.68. For the same binder, the sVNT SARS-CoV-1 (% I) [4] was 11.7%.

B3: Antibody 8 (SS6V8-D3) (antibody, V domains shown)
VH: EVQLVESGGDLVQPGGSLRLSCSASGFTFSTYAMHWVRQAPGKGLDYVASIASDGGITTYADSVKGRFTISRDNSKNALYLQMSSLRVEDTAVYYCVKDSLTSVTTIFDCWGQGTLVTVSS
VL: DIQMTQSPSSLSASVGDSVTITCRASQNINSYLHWYQQKPGKAPKLLIYTASSLQSGVPSRFSASGSGTHFTLTISSLQPEDFATYYCQQSYTDPYTFGQGSKVEIK
For B3, the sVNT SARS-CoV-2 (% I) [1] was 33.1%, the Binding SARS-CoV-1 [2] was 1.42 and the Binding SARS-CoV-2 [3] was 1.94. It also gave a sVNT SARS-CoV-1 (% I) [4] of 36.1%.

B4: Antibody 12 (SS6V12-E11) (antibody, V domains shown)
VH: EVQLVESGGGLVKPGGSLRLSCAASGFTFSTYNMNWVRQAPGKGLEWVSSISSSSSFMFYADSVKGRFTISRDNANNSLYLQMNSLRAEDTAVYYCARDYYDNSGYYYYGMDVWGQGTTVTVSS
VL: DIQMTQSPSSLSASVGDRVTITCRASQSIRTYLSWYQQKPGKAPELLIYAASNLQSGVPSRFSGSGSGTDFTLTISSLQPEDFATYYCLQTYSTPQITFGQGTRLEIE
Work on B4 yielded a sVNT SARS-CoV-2 (% I) [1] of 45%, a Binding SARS-CoV-1 [2] of 1.21 and a Binding SARS-CoV-2 [3] of 1.45. It also gave a sVNT SARS-CoV-1 (% I) [4] of 50.4%.

B5: Antibody 15 (SS6V15-F6) (antibody, V domains shown)
VH: EVQLVESGGGVVQPGRSLRLSCAASGFTFSSYAIHWVRQAPGKALEWVALISYDGRTKYYADSVKGRFTISRDNSKNTLYLQMNSLRAEDTAVYYCARLDIIITPPANDYWGQGTLVTVSS
VL: EIVLTQSPGTLSLSPGDRATVSCRASQIVSSNYLAWYQQKPGQVPRLLIYDASSRATGIPDRFSGSGSGTDFTLTISRLEPEDFAVYYCHQYGDSRRTFGQGTKVDIK
B5 showed a sVNT SARS-CoV-2 (% I) [1] of 15.7%, a Binding SARS-CoV-1 [2] of 0.831 and a Binding SARS-CoV-2 [3] of 0.674. It also gave a sVNT SARS-CoV-1 (% I) [4] of 17.5%.

B6: Antibody 7 (SS6V7-C5) (antibody, V domains shown)
VH: EVQLVQSGAEVKKPGESLKISCKGSENIFSGYWIGWVRQMPGKGLEWMGIIYPDDSDTRYNPSFQGQVTISADQSISTAYLQWSRLKASDTAMYYCARHLGGGSSWPIDYWGQGTLVTVSS
VL: DIQMTQSPSSLSASVGDRVTITCRANQGISNYLAWFQQKPGKAPKSLIYAASSLQSGVPSKFSGNRSGTDFTLTISSLQPEDFATYYCQQYSSYPFTFGGGTKVEIK
B6 gave a sVNT SARS-CoV-2 (% I) [1] of 14.9%, a Binding SARS-CoV-1 [2] of 0.972 and a Binding SARS-CoV-2 [3] of 1.16. It also gave a sVNT SARS-CoV-1 (% I) [4] of 20.8%.

B7: Antibody 10 (SS6V10-E1) (antibody, V domains shown)
VH: EVQLVQSGAEVKKPGESLKISCQGSEDSFTGYWIGWVRQLPGKGLEWMGFIYPDDGDTRYSPAFQGLVTFSADKSITTAYLQWSSLKASDTAIYFCARHLGGGSSWPIDSWGQGTQVTVSS
VL: DIQMTQSPSSLSASVGDRVTITCRASQGIRNYLAWFQQKPGKAPKSLIYAASSLQSGVPSKFSGSGYGTDFTLTINSLQPEDFATYYCQQYNNHPFTFGGGTKVEIK
B7 showed a sVNT SARS-CoV-2 (% I) [1] of 22.7%, a Binding SARS-CoV-1 [2] of 1.1 and a Binding SARS-CoV-2 [3] of 1.31. The sVNT SARS-CoV-1 (% I) [4] was 15.4%.

B8: Antibody 14 (SS6V14-F2) (antibody, V domains shown)
VH: QVQLQESGPGLVKPSETLSLTCTVSGGPISSYYWTWIRQPPGKGLEWIGYIYYSGSTNYSPSLKSRVTMSLETSKNQFSLKLTSVTAADTAVYYCARDPLAEGAASSGFDNWGQGTLVTVSS
VL: DIQMTQSPSSLSASVGDRVTITCRASQSISSYLNWYQQKPGKAPKLLIYAASALQSGVPSRFSGSGSGTHFSLTINGLQPEDFATYSCQQSYTTPRTFGPGTKVEIK
In the case of B8, the sVNT SARS-CoV-2 (% I) [1] is reported as 33.4%, the Binding SARS-CoV-1 [2] is reported as 1.06 and the Binding SARS-CoV-2 [3] is reported as 1.54. For the same binder, the sVNT SARS-CoV-1 (% I) [4] was 18.1%.

B9: Antibody 2 (SS6V2-G1) (antibody, V domains shown)
VH: EVQLVESGGGLVQPGGSLRLSCAASGFTVSSNYMSWVRQAPGKGLEWVSVIYSGGSTFYADSVKGRFTISRDNSKNTLYLQMNSLRAEDTAVYYCARELRHYFDYWGQGTLVTVSS
VL: DIQLTQSPSFLSASVGDRVTITCRASQGISSYLAWYQQKPGKAPKLLIYAASTLQSGVPSRFSGSGSGTEFTLTISSLQPEDFATYYCQQLNSYPPYSFGQGTKVEIK
Work on B9 yielded a sVNT SARS-CoV-2 (% I) [1] of 20.2%, a Binding SARS-CoV-1 [2] of 0.008 and a Binding SARS-CoV-2 [3] of 0.947. It also gave a sVNT SARS-CoV-1 (% I) [4] of 1.35%.

B10: Antibody 9 (SS6V9-D11) (antibody, V domains shown)
VH: QVQLQESGPGLVKPSGTLSLTCAVSGGSISSNIWWSWVRQPPGKGLEWIGDIYHSGSTNYNPSLEGRVTISIDKSKNQFSLRLTSLTAADTAVYYCARAISQQYFDSSVLGYWGQGILVTVSS
VL: EIVMTQSPATLSVSPGERVTLSCRASQSVVTNLAWYQQKPGQAPRLLIYGASTRATGIPARFSGSGSGTEFTLTISSLQSEDFAIYHCQQYNNWPGYTFGQGTKVDIK
B10 gave a sVNT SARS-CoV-2 (% I) [1] of 39.2%, a Binding SARS-CoV-1 [2] of 1.29 and a Binding SARS-CoV-2 [3] of 1.81. For the same binder, the sVNT SARS-CoV-1 (% I) [4] was 45.2%.

B11: Antibody 19 (SS6V19-F4) (antibody, V domains shown)
VH: EVQLVQSGSELKKPGASVKVSCKVSGYTFTDYNMNWVRQAPGQGLEWMGWINTNTGIPTYAQGFTGRFVFSLDTSVSTAYLQISSLKAEDTAIYYCARDGGWQLPYWYFDLWGRGTLVTVSS
VL: EIVMTQSPATLSVSPGERVTLSCRASYSFSSSLAWYQQKPGQAPRLLIYGTSTRATGVPVRFSGSGSGTEFTLTISSLQSEDLAVYYCQQYYSWPLTFGQGTKVDIK
B11 showed a sVNT SARS-CoV-2 (% I) [1] of 38.8%, a Binding SARS-CoV-1 [2] of 1.15 and a Binding SARS-CoV-2 [3] of 0.641. For the same binder, the sVNT SARS-CoV-1 (% I) [4] was 61.2%.

B12: Antibody 6 (SS6V6-C4) (antibody, V domains shown)
VH: EVQLVESGGGLVQPGGSLRLSCSASGFTFNTYAMHWVRQAPGKGPEYVSGISSNGGITDYADSVKGRFTISRDNSKNTLYLQMSSLRPEDTAVYYCVKDSLATVVTLLSYWGQGTLVTVSS
VL: DIQMTQSPSSLSASVGDRVTITCRASQTISSYLNWFQQKPGKAPKLLIYAASSLQSGVPSRFSGSGSGTDFTLTISSLQPEDFAIYYCQQSYSTPGTFGQGTKVEIK
Work on B12 yielded a sVNT SARS-CoV-2 (% I) [1] of 31.7%, a Binding SARS-CoV-1 [2] of 1.29 and a Binding SARS-CoV-2 [3] of 1.92. It also gave a sVNT SARS-CoV-1 (% I) [4] of 30.5%.

B13: Antibody 18 (SS6V18-E3) (antibody, V domains shown)
VH: EVQLVESGGGLVQPGGSLRLSCAASGFTFSSYAMHWVRQVPGKGLEYVSSITSNGGGTFYADSVKGRFTISRDNSKNTVYLQMGSLSTEDMALYYCAREGIQGWVTYFDYWGRGILVTVSS
VL: DIQMTQSPSSLSASIGDRVTITCRASQSISTNLNWYQQKPGKAPKLLIYAASSLPSGVPSRFSGSGSGTDFTLTISSLQPEDFANYLCQQTYTTPQYSFGQGTKVEIK
B13 showed a sVNT SARS-CoV-2 (% I) [1] of 15.5%, a Binding SARS-CoV-1 [2] of 1.33 and a Binding SARS-CoV-2 [3] of 1.11. The sVNT SARS-CoV-1 (% I) [4] was 43.7%.
